Data published in the nanobody polyreactivity screen of Harvey et al. (2022).

Experiment: yeast display, Sf9 membrane polyspecificity reagent, FACS + sequencing; frameworks hold sequencing errors
Method in brief: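 A synthetic nanobody library was expressed on Saccharomyces cerevisiae BJ5465 by galactose induction for 36–48 hours. The library was stained for 1 hour at 4 °C with 10% biotinylated, detergent-solubilized Sf9 membrane reagent and enriched with streptavidin microbeads before FACS. Low and high (top ~1%) gates were set on anti-HA fluorescence for expression and streptavidin fluorescence for reagent binding, and each polyreactivity label reflects the gate of origin.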

Row | Sequence | polyreactivity (PSR sort gate)
1 | QVQLVESGGGLVQAGGSLRLSCAASGRTFVNYAMGWYRQAPGKERELVAAITSDGSTSYADSVKGRFTISRDNAKNTVYLQMNSLKPEDTAVYFCAKDFFEHSPVSHTYSSSKYDYWGQGTQVTVSS | low polyreactivity
2 | QVQLQESGGGLAQAGGSQRLSCAASGTIFAADSMGWYRQAPGKERELVAGITSGANTYYADSVKGRYTISHDNAKKTVYLQMDSLIPEAIAVYYCAAPGSTTYDLEYWGQGTQVTVSS | high polyreactivity
3 | QVQLVESGGGLVQAGGSLRLSCAASGRIFYAYALGWYRQATGIERELVAAISRRGGSTYYADSVKGRFTISRDNAKNTVYLQMNSLKPEDTAVYYCAADRQFSYVYYIDPTAYEYCGQGTQVTVSS | high polyreactivity
4 | QVQLVESGGGLVQAGGSLRLSCAASGSTFEANAMGWYRQAPGKERELVAVITWTGGSTYYADSVKGRFTISRDNAKNTVYLQMNSLKPEDTAVDYCAADGVVPGRFFWPAHEYDYWGQGTQVTVSS | low polyreactivity
5 | QVQLVESGGGLVQAGGSLRLSCAAYGFIFVRYAMGWYRQAPGKERELVAAISWRGGSTYYADSVKGRFTISRDNAKNTVYLQMNSLKPEDNAVYYCAGAVYQRARYYWGQGTQVNVSS | high polyreactivity
6 | QVQLVESGGGLVQAGGSLRLSCAASGIIFFRNAMGWYRQAPGNERELVATITSGVSTNYADSVKGRFTISRDNAKNTVYLQKNSLKPEDTAVYYCATEGFPFYDFDYWGQGTQVTVSS | high polyreactivity
7 | QVQLVESGGGLVQAGGSLRLSSAASGRIFNSYAMGWYRQAPGKERELVAIIRSSGTTYYADSVKGRFTISRDNAKNSVYVQMNSLKPEDTAVYDCAADPYYWRQFNYDYWGHGTQVTVSS | high polyreactivity
8 | QVQIVESGGGLVQAGGSLRLSCAASGSIFARMAMGWYRQAPGKEWELVAAITTGGITNYADSLKGLFTISRDNAKNTVYLQMNSLKPDDTAVYYCAATSWRYQQSTRYKGRRYYSWGQGTQVTVSS | high polyreactivity
9 | QVQLVESGGGLVQAGGSLRLSCAASGSIFGAYAMGWYRQAPGKERELVAVIRWGGGSTYADSVKGRFTISRDNAKNTVYLQMNSLKPEDTAVYYCNRDKSWADLYSHAYDYWGQGTQVTVSS | low polyreactivity
10 | QVQLVESGGGLVQAGGSHRLSCAASGRIFVKYAMGWYRQAPGKERELVAAITKSGSSTYYADSVKGRFTISRDNAKITVYLQMNSLKPEDTAVYYCAALTISRSRTGYYWGQGTQVTVSS | low polyreactivity
11 | QVQLVESGGGLVQAGGSLRLSCAASGRIFYRYAMGWYRQAPGKERELVAAITYSGSSTYYADSVKGRFTISRDNAKNTVYLQMNSLKPEDTAVYYCAARFQSTNGHKYYYWGQGTQVTVSS | high polyreactivity
12 | QVQLVESGGGLVQEGGSLRLSCAASGRTFDRYAMGWYRQAPGKERELVAAITWTGGSTYYADSVKGRFTISRDNAKNTVYLQMNSLKPEDTAFYYCNRAPSRPTSKTRLYYWGKGTQVTVSS | high polyreactivity
13 | QVQLVESGGGLVQAGGSLRLSCAASGIIFGVNVMGWYRQAPGKERELVATITWRGDSTYYADSVKGRFTISRDNAKNTVYLQMNSLKPEDTAVYYCARGARTGVREDDYWGQGTQVTVSS | low polyreactivity
14 | QDQLVESGGGLVQGGGSLRLSCAGSGFTFSRYAMGSYRQAPGKERELVAAITRRRGRTYYADSVKGRFTISLDNAKNTVYFKMNSLYPEDTAVYYCNTDAYRLGYDYWGQGTQVTVSS | high polyreactivity
15 | QVQLVESGGGLVQAGGSLRLSCAASGFTFKYYAMGWYRQAPGKERELVAAISRRGTSTYYADSVKGRFTISRYNAKNTVYLQMNCLKPEDTAVYYCSACAYGTYSVYWINEYDYWGQGTQVTVSS | high polyreactivity
16 | QVQLVESGGGLVQAGGSLRLSCAASGRIFGAYTMGWYRQAPGKERELVAVISSRGTDTYYADSVKGRFTISRDNAKNTVYLQMNSLKPEDTAVYYCAKRWWYTTSPRRSGDYWGQGTQVTVSS | high polyreactivity
17 | QVQLVESGGGLVQAGGSLRLSCAASGSTFWYYAMGWYRQAPGKEREFVAAITTSAGRTYYADSVKGRFTISRDNAKNSVYLQMNSLKPEDTAVYYCAAEPRQYWEYNYWGQGTQVTVSS | high polyreactivity
18 | QVQLVESGGGLVQAGASIRLSCAASGSTFYTYDMGRYIQAPGKERELVAVITPRSGTTSYADSVKGRFTISRDYAKNTVYLQMNSLKPEDTAVYYCNVYIPYSYGEYDYWGQGTQVTVSS | high polyreactivity
19 | QVQLVESGGRLVQAGGSLRLSCAASGYNFSKYAMGWYRQAPGKERELVAAISGSGGSTSYADSVKGRFTISRDNAKNTVYLHMNSLKPEDTAVYYCNARSRLQRGRMDYWGQGTQVTVSS | high polyreactivity
20 | QVQLVESGGGLVQEGGSLRLSCAASGSTFGLYAMGWYRQAPGKERELVAAISSRGSRTYYADSVKGRFTISRDNAKNTVYLQMNSLKPEDTAVYYCNAMYASCVRHKVTYDYWGQGTLVTVSS | high polyreactivity
21 | QVQLVESGGGLVQAGGSLRLSCAASGRIFTGYAMGWYRQAPGKERELVATIRSRGGGTYYADSVKGRFTISRDNAKNTVYLQMNSLKPEDTAVYYCAADDYYYYFGTRYGYWGQGTQVTVSS | low polyreactivity
22 | QVQLVESGGGLVPAGGSLRLICAGSAFTFRSYAIGWYRQAPGQERELVAAISLGGTSTYYADSVKGRFTISRDNAKNTVYLQMNSLKPEDTAVYSCAARSYGHYGYWGQGTQVTVSS | high polyreactivity

Row | Sequence | polyreactivity (PSR sort gate)
23 | QLQLVDSGGGLVQAGGSLRLSCAASGRTFRIYAMGWYRKAPGKERELVASITGGGTTNYADSVKGRFTISRDNAKYTVYLQMNSLKPEDTAVYYCAARSRTRPNVPGYGYWGQGTQVTVSS | high polyreactivity
24 | QVQLVESGGGLVQAGGSLRLSFAASGSTFVYNAMGWYRPAPGKERELVAAITVIGGRTYYADSVKGRFTISRDNAKNTVYLQMNSLKPEDTAVYYCNADATESIGYYDEYEYWGQGTQVTVSS | low polyreactivity
25 | QVQLVESGGGLVQAGGSLRLSCAASVRTSSKYALGWYRQAPGKERELVAGISASGTRTYYADSVKGRFTISRDNAKNTVYLQMNSLKPEDTAVYYCATSFFWYYYWGQGTQVTVSS | high polyreactivity
26 | QVQLVESGGGLVQAGGSLRLSCAASGRIFKYYVMGWYRQAPGKERELVAGISSSGVSTYYADSVKGRFTISRDNAKNTVYLQMNSLKPEDTAVYYCNAKSRTGYGRGDYWGQGTQVTVSS | high polyreactivity
27 | QVQLVESGGGLVQAGGSLRLSCAASGSTFDIYAMGWYRQAPGKESELVAAISGSSTRTYYADSVKGRFTISRDNAKYTVYLQMNSLKPEDTPGYYCVGRFYERDYWGQGTQVTVSS | high polyreactivity
28 | QVQLVESGGGLVPAGGSLRLSCAASGRIFYYYAMGWYRQAPGKERELVAAISSSGGSTYYADSVKGRFTISRDNAKKTVYLQMNSLKPEDTAVYYCAKRYALSGYYRLYDYWGQGTQVTVSS | high polyreactivity
29 | QVQHVESGGGLVQAGGSLRLSCAASGIIFRDYGMGWYRQAPGKEREFVATITYSGGGTYYADSVKGRFTISRDNAKNTVYLQMNSLKPEDTAVYYCAAYPFYYDLAYDYWGQGTQVTVSS | low polyreactivity
30 | QVQLLESGGGLVQAGGSLRLSCAASGFTFWYYAMVWYRQAPGKERELVAAITRGGSTNYADSVKGRFTISRDNAKNTVYLQMNSLKPEDTAVYYCAATIYDYNRAGKYYYWGQGTQVTVSS | high polyreactivity
31 | QVHLVESGGGLVQAGGSLRISCAATGYTFLYNAMGWYRQAPGKEREFVAGIRRSVGSTYYADSVKGRFTISRDNAKNTVYLQMNSMTREDTAVYYCALVPALYRYRVGTYAYDYWGQGTQVTVSS | low polyreactivity
32 | QVQHVDSGGGLVQAGGSLRLSCAASGFIFSYYAMGWYRQAPVKERELVAGISYNGDRTYYADSVKGRFTISRDNAKNTFYLQMKSLKPEDTAVYYCNVVWVLGGWYDLEYDYWGQGTQVTVSS | high polyreactivity
33 | QVQLVETGGGLVQAGGSLRLSCAASGSIFVLYAMGWYRQAPGKEREFVAAISSSGGSTYADSVKGRFTISRDNAKNTVYLQMNSLKPEDTAVYYCARDVYLSDPPRDYDYWGQGTQVTVSS | low polyreactivity
34 | QVQLVESGGGLVQAGGSLRLSCAASGSIVNYYAMGWYRQAPGKERELVAAITWSGGRTYSADSVKGRFTSSRDNAKNTVYLQMNSLKPEDTAVYYCATAPVRIRDILFSPRMDYWGLGTQVTVSS | low polyreactivity
35 | QVQLVESGGGLVQAGGSLRLSCAASGRIFDYYAMGWYRQAPGKERELVAAITSSGGSTYYADSVKGRFTISRDNAKNTVYLQMNSLKPEDTAVYYCAAGRKVQSRRYGYWGQGTQVTVSS | high polyreactivity
36 | QVQLQESGGGLVQAGGSLRLSCAASGPISRRSTMGWNRQAPGKERELVTAITRGTNTNYADSVKGRFTISRDNAKNTEYLQMNSLKPVDTAVYYCAAYGVLKPSRGDAVFHRYWGQGTQVTVSS | low polyreactivity
37 | QLQLVESGPGLVQAGGSLRLSCAPSGSTFNRNAMGCYSQAPGKERELVAVISSGGSTYYADSVKGRFTISRDIAKNTVYLQMNSLKPEDTAVYYCAAGDPQKEDYWGQGTQVTVSS | low polyreactivity
38 | QVQLVESGGGLVQAGGSLRLSCAASGRIFTHNAMGWYRQAPGKERELVAAISSIGGSTYYADSVKGRFTISRDNAKNTVYLQMNSLKPEDTAVYYCAVKRPLYGDSEYYYWGQGTQVTVSS | low polyreactivity
39 | QVQLVESGGGLVQAGGPLRLSCAASGYLFSYYAMGWSRQAPGKERELVATIDWGGGSTYYADSVKGRFTISRDNANNTVYLQLNSLKPEDTAVYYCSKDYYINKYGYRYDSWGQGTQVTVSS | low polyreactivity
40 | QVHLVESGGGLVQAGGSLRISCAASGSNFSYYARGWYRQAPGKESELVAAISQSGGTTYYADSVKGRFTISRDHAKNTVYLQMNCLKPEDTAVYYCAARAPSSFDTQYYYWGLGTQVTVSS | low polyreactivity
41 | QVQLVESGGGLVQAGGSLRLSCAASGSIFKYYAMGWYRQAPGKERELVAAISFSGGSTYYADSVKGRFTISRDNAKNTVYLQMNSLKPEDTAVYYCAVLGVWGYGYWGQGTQVTVSS | high polyreactivity
42 | QVQLVESGGALVQAGGSLRLSCAASGSIFSRYTMGWYRQAPGKERELVAAIPSSGGRTYYADSVKGRFTNSRDNAKNTVYLQMNSLKPEDTAVYYCNAGGAYEYDYWGQGTQVTVSS | high polyreactivity
43 | QVQLVESGGGLVQAGGSLRLSCAASGFIFESNAMGWYRQAPGKERELVAAISKRGGSTYYADSVKGRFTISRDNAKNTVYLQMNSLKPEDTAVYYCNKARGYYHPGYQYGLDYWGQGTQVTVSS | high polyreactivity
